These are literature values, as cited in paper PMC6628625.

Data set [1] deals with calmodulin (Homo sapiens) (UniProt P0DP23).
The target is the same in data set [2]. The source holds these as a separate data set.

Read-outs that look alike come from different tables or passages of the source.

With “AC (adenylate cyclase toxin) (from UniProt P0DKX7)”, the Kd in data set [1] is 0.0002 µM.
With EF (edema factor) (from UniProt P40136), the Kd in data set [2] was 0.02 µM.
